This data set is described as follows: yeast display, Sf9 membrane polyspecificity reagent, FACS + sequencing; frameworks hold sequencing errors. In a few lines:
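Synthetic nanobody libraries on Saccharomyces cerevisiae BJ5465 were galactose-induced for 36–48 hours, stained 1 hour at 4 °C with 10% biotinylated, detergent-solubilized Sf9 membrane reagent and enriched on streptavidin microbeads. FACS then separated cells into low and high (top ~1%) gates by anti-HA (expression) and streptavidin (reagent binding) fluorescence. Genes were colony-PCR amplified, MiSeq 2 × 250 sequenced and CDR-length filtered. A clone's polyreactivity label is that of its gate of origin.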
Consider “QVQLVESGGGLVQAGGSLRLSCAPSGSTFRTYTMGWYIQAPGKERELVAAITGRGGSTYYADSVKGRFTISRDTAKNTVYFQMNSLKREDTAVYYCAALYGGQTKHDFWGQGTQVTVSS”, for which the “polyreactivity (PSR sort gate)” value is given as “low polyreactivity”.

For the sequence “QVQLVESGGGLVQAGGSLRLSCAASGFILYRYAMGWYRQAPGKERELVAAISSGGRTYYADSVKGRFTISRDNAKNTVYLQMNSLKPEDTAVYYCNAAYKNSPYDYWGQGTQVTVSS”, the “polyreactivity (PSR sort gate)” value is “high polyreactivity”.

Turning to “QVQLVESGGGLVQAGGSLRLSCAASRSTFFRYAMGWYRQAPGKERELVAAITWSGGSTYYADSVKGRFTISRDNAKNTVYLQMNSLKPEDTAVYYCAAPWRLFSLYDYWGQGTQVTVSS”, the “polyreactivity (PSR sort gate)” value is recorded as “low polyreactivity”.

Turning to “QVQLVESGGGLVQAGGSLRLSCAASGRIFTPNAMGWYRQPPGKERELVAAITWSGDNTYADSVKGRFTISRDNAKNTVYLQMNILKPEDTAVYYCAAAYGYGHKKYGYWGQGTQVTVSS”, the “polyreactivity (PSR sort gate)” value is “low polyreactivity”.

As for “QVQLVESGGGLVQAGGSLRLSCAASGCTFPLYLMGWYRQAPGKERELVAAIDWSGGSTYYADSVKGRFTISRDNAKNTVYLQMNSLKPEDTAVYYCAARYTSLRNYGYDYWGQGTQVTVSS”, the “polyreactivity (PSR sort gate)” value is on record as “low polyreactivity”.

For “QVQLVESGGGLVQAGGSLRLSCAASGITFYLYDMGWYRQAPGIERELVASITSDGSTDYADSVKGRFTISRDNAKNTVYLQMNSLKPEDTAVYYCNARVTYSWYRFGRSGDDSWGHGTQVTVSS”, the “polyreactivity (PSR sort gate)” value is “low polyreactivity”.

As to “QVQLVESGGGLVQAGGSLRLSCAASGSIFVDNAMGWYRQAPGKERELVAVITLRSGSTNYADSVKGRFTISRDNAKNTVYLQMNSLKPEDTAVYYCAADETYHDYQRDTDDDYWGQGTQVTVSS”, the “polyreactivity (PSR sort gate)” value is “low polyreactivity”.

For the sequence “QVQLEESGGGLVQAGGSLRLSCAASRRIFGSNAMGWYRQAPAKERELVAVITSGGRTYYADSVKGRFTISRDNAKNTVYLQMNSLKPGDTSVYYCNAYYKAAYDYWGQGTQVTVSS”, the “polyreactivity (PSR sort gate)” value was “high polyreactivity”.

Turning to “QVQLVESGGGLVQAGGSLRLSCAASGITFSYYAMGWYRQAPGKERELVAAISWSGGTTYYADSVKGRFTISRDNAKNTVYLQMNSLKPEDTAVYYCAADGGAVGSDYWGQGTQVTVSS”, the “polyreactivity (PSR sort gate)” value is listed as “high polyreactivity”.

With “QVQLVESGGGLVQAGGSLRLSCAASGFIFNIYAMGWYRQAPGKERELVAAITFSGGSTYYADSVKGRFTISRDNAKNTVYLQMNSLKPEDTAVYYCAADYLSEYTTYDYWGQGTQVTVSS”, the “polyreactivity (PSR sort gate)” value is “low polyreactivity”.

Turning to “QVQLVESGGGLVQAGGSLRLSCAASGSIFGKYTMGWYRQAPGKEREFVAAITSVGSTNYADSVKVRFTISRDNAKNTVYLQMNSLKPVDTAVYYCAADTIGYHYWYDYWGQGTQVTVSS”, the “polyreactivity (PSR sort gate)” value is “low polyreactivity”.

For the sequence “QVQHVESGGGLVQAGGSLRLSCAASGNSFRYYTMGWYRQAPGKEREFVAAISWSGGRTRYADSVKGRFTISRDNAMITVYLQMNSLKPEDTAVYYCAAYTPSYGGRDYWGQGTQVTVSS”, the “polyreactivity (PSR sort gate)” value is on record as “low polyreactivity”.

Turning to “QVQHVESGAGLVQAGGSLRLRCAASGIIFYYYAMGWYRQAPGKERELVASISRSGTDTYYADSVKGRFTISRDNAKYTVYLQMNSLIPEDTAVYDCAAKLYSKRTGARMNYWGQGTQVTVSS”, the “polyreactivity (PSR sort gate)” value is given as “high polyreactivity”.

For “QLQLVESGGGLVQAGGSLRLSCAYYGFIFYWNAMGWYRHAPGKESQFVATITWSGGSTYYADSVTGRFTISRDNAKNTVYLQMNSLKPEDTAVYSCAVSYLSTLGRSRSDYWGQGTQVTVSS”, the “polyreactivity (PSR sort gate)” value was “low polyreactivity”.

On to “QVQLVESGGGLVQAGGSLSLSCAASGFIFTPYTMGWYREAPGKERELVAAITDGSSTNYADSVKGRFTISRDNAKNTVYLQMNSLKPEDTAVYYCAKDWPSAVYGSWAGRYDYWGQGSQVTVSS”, for which the “polyreactivity (PSR sort gate)” value was “low polyreactivity”.

For “QVQLVESGGGLVQAGGSLRLSCAASGSTFQYYAMGWYRQAPGKERELVASITWGGDNTDYADSVKGRFTISRDNAKNTVYLQMNSLKPEDTAVYYCNTVRSNKMDYWGQGTQVTVSS”, the “polyreactivity (PSR sort gate)” value is listed as “high polyreactivity”.

Regarding “QVQLVESGGGLVQAGGSLRLSCAASGYTFIDNAMGWYRQAPGRERELVAAISDSAGDTYYADSVKGRFTISRDNAKNTVYLQMNSLKPEDTSVYYCAARGYLRGEQLYVFIRYDYWGHGTQVTVSS”, the “polyreactivity (PSR sort gate)” value is on record as “low polyreactivity”.

Regarding “QVQLVESGGGLVQAGGSLRLSCAAYGSTFEYYVMGWYRQAPGKERELVAAISGSGGGTYYADSVKGRFTISRDNAKNTVSLQMNSLKPEDTAVYYCAAVATLEKYDYWGQGNQVTVSS”, the “polyreactivity (PSR sort gate)” value is listed as “low polyreactivity”.

In the case of “QVQLVESGGGLVQAGGSLRLSCAASGIIFYENAMGWYRQAPGKERELVAAIDGDDGGTDYADSVKGRFTISRDNAKNTVYLQMNSLKPEDTAVYYCAADFGAETGYYYWGQGTQVTVSS”, the “polyreactivity (PSR sort gate)” value was “low polyreactivity”.

For “QVQLVESGGGLVQAGGSLRLSCATSGRTFRFNAMGWYRQAPGKEREFVAAITSGGGTYYADSVKGRFTISRDNAKNTLDLQMNSLKPEDTAVYYCAAPRQYYLMDYWGQGTQVTVSS”, the “polyreactivity (PSR sort gate)” value is given as “low polyreactivity”.

As for “QVQLVESGGGLVQAGGSLRLSCAASGSTFYAYAMGWYRQAPGKERELVAVITSSGSTYYADSVKGRFTISRDNAKNTVYLQMNSLKPEDTAVYYCARVSYRGYGYWGQGTQVTVSS”, the “polyreactivity (PSR sort gate)” value is “high polyreactivity”.

For “QVQLVESGGGLVQAGGSLRLSCAASGFTFSYYAMGWYRQAPGKERELVAAISGSGTRTYYADSVKGRFTISRDNAKNTVYLQMNSLKPEDTAVYYCAADLYVTYDYWGQGTQVTVSS”, the “polyreactivity (PSR sort gate)” value is reported as “high polyreactivity”.

For “QVQLVESGGGLVQAGGSLRLSCAASGFISKYYAMGRYRQAPGKERELVASISRDGSTSYADSVKGRFTISRDNAKNTVYLQMNSLKPEDTAVYYCAAPSYRTRYYYWGQGTQVTVSS”, the “polyreactivity (PSR sort gate)” value is on record as “high polyreactivity”.

For “QVQLVESGGGLVQAGGSLRLSCAASGRIFKFNAMGWYRQAPGKVRELVAATWSGGRTSYADSVKGRFTISRDNAKNTVYLQMNSLKPEDTAVYYCNAADWIDVQYDYGGQGTQVTVSS”, the “polyreactivity (PSR sort gate)” value is “low polyreactivity”.

In the case of “QVQLVESGGGLVQAGGSLRLICAASGSTFIGNVMGWYRQAPGKERELVAAITSTDSTDYADSVKGRFTISRDNAKNTVYLQMNSLKPEDTAVYYCNAEYEYGSAYWSGVYYWYNYWGQGTQVTVSS”, the “polyreactivity (PSR sort gate)” value was “high polyreactivity”.

Turning to “QVQLVESGGGLLQAGGSLRLSCAASVSIFEYYPMGWYRPAPGKERELVADITWSGGSTYYADSVKGRFTISRDNAKNTVDLQMNSLKPEDSAVYYCAKGYYVYGIFHRFGYYWGQGTQVTVSS”, the “polyreactivity (PSR sort gate)” value is “high polyreactivity”.

As for “QVQLLESGGGLVQAGGSLRLTCAASGNIFISYAMAWYRQAPGKERELVAAISRSGGSTYYADSVKGRFTISRDNAKNTVYLQMNSLKPEDTAVYYCAAYIGPGRYGSWGQGTQVTVSS”, the “polyreactivity (PSR sort gate)” value is listed as “high polyreactivity”.

With “QVQLEESGGGLVQAGGSLRLSCAASGRTFYRYAMGWYRQAPGKERELVATISSRGTSTYYADSVKGRFTISRDNAKNTVYLQMNSLKPEDTAVYYCAVRGYAAGRHGYDYWGQGTQVTVSS”, the “polyreactivity (PSR sort gate)” value is listed as “high polyreactivity”.

For the sequence “QVQLVESGGGIVQAGGSLRLSCAASGLIFRRYTMGWYRQAPGKERELVAAIRNSGSSTDYADSVKGRFTISRDNAKNTVYLQMNSLKPEDTAVYYCAKRSARKLTYDSWGQGTQVTVSS”, the “polyreactivity (PSR sort gate)” value was “low polyreactivity”.

Turning to “QLQLVESGAGLVQAGGSLRLICAASGSIFKSYAMGWYRQAPGKQMEFVAAISWSGGSTYADSVKGRFTISRDNAKNTVYLQMNSLKPEDTAVYYCNKDDYWFLGFYYWGQGTQVTVSS”, the “polyreactivity (PSR sort gate)” value is given as “low polyreactivity”.

For the origin of these results see the nanobody polyreactivity screen of Harvey et al. (2022).
